The results in this text go back to patent US20040019188A1, “Targeting through integrins” (priority 2000, published 2004).

The target in this assay is α5β1 integrin (major fibronectin receptor) on HEp-2 cells (human), P08648.
Sequence of α5β1 integrin (major fibronectin receptor) on HEp-2 cells (human), P08648 (P08648 42-1049, chain 1 of 2): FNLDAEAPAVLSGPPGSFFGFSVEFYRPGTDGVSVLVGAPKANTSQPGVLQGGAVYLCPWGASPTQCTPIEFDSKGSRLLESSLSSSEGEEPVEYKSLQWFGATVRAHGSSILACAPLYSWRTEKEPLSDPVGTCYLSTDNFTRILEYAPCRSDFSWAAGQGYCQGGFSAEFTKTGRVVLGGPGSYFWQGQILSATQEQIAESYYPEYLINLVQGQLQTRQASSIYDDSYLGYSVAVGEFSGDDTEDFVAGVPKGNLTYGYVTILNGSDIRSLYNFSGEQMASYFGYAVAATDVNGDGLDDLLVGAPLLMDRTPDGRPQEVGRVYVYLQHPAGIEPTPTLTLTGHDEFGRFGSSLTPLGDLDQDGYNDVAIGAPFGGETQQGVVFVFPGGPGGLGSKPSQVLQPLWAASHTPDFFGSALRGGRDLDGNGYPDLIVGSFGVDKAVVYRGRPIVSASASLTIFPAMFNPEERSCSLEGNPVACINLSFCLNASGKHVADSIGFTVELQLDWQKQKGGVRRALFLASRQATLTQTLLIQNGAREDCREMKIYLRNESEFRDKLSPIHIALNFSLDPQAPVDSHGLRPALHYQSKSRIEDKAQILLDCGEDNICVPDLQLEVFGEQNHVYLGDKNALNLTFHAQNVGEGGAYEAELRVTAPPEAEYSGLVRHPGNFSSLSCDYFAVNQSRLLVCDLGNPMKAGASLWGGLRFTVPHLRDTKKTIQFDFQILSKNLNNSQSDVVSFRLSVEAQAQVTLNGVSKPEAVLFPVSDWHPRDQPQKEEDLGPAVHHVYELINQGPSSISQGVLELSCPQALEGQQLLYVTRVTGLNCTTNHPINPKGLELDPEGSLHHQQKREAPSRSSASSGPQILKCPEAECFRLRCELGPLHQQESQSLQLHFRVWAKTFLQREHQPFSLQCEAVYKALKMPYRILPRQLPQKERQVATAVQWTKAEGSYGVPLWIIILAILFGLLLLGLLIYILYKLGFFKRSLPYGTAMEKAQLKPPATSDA
Sequence of α5β1 integrin (major fibronectin receptor) on HEp-2 cells (human), P08648 (P05556 21-798, chain 2 of 2, further chain): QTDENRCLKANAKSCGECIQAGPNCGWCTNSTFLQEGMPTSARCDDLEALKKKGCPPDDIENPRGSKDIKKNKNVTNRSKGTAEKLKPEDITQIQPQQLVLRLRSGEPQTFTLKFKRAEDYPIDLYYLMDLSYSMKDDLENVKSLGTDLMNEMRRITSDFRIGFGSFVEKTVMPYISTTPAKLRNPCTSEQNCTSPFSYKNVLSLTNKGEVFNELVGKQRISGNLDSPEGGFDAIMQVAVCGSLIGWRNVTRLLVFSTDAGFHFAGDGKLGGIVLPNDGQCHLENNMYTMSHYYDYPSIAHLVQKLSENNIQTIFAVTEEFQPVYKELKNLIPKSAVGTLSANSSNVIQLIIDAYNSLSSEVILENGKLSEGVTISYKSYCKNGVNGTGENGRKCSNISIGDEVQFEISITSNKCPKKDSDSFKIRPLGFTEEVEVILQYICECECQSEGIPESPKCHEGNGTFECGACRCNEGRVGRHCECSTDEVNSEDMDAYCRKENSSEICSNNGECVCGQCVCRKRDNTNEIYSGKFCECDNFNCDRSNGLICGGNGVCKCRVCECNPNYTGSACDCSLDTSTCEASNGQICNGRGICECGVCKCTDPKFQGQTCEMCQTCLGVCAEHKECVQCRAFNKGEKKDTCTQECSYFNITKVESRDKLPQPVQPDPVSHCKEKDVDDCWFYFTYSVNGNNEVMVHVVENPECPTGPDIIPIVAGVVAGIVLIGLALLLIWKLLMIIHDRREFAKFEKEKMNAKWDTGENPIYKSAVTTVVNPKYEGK

In the case of RGDS (modifications not checked) [RGDS peptide (Gibco)], the ID30 worked out at 170 µM.
